The values that follow come from paper PMC11827763, “A Gold Nanoparticle-based Aptasensor for Specific Detection of CA125”.

The target of the data set is CA125 (carbohydrate antigen 125) (UniProt Q8WXI7 1-14451). Nature of the data set: AuNP aggregation aptasensor (A660/A520); 200 nM aptamer, citrate AuNPs ~13 nm, NaCl 1 M stock added after binding; linear 15-160 U/mL, LOD 14.41 U/mL; 50 uL CA125 (15-160 U/mL) + 50 uL aptamer (200 nM), 30 min, room temperature; then 50 uL AuNPs 5 min, 10 uL 1 M NaCl 5 min; buffer and pH not stated. To be noted: protein: commercial; predicted stem-loop.

For TCACTATAGGGAGACAAGAATAAACGCTCAA (ssDNA) [CA125 aptamer (31-mer)], the binding result was “binds”.
